The results in this text go back to patent US20190062420A1 (Janssen / Centocor, published 2019).

Broadly, the EC50 is the concentration needed to bring the measured effect to its halfway point. A high value points to a less potent agent.

Numbering of substitutions follows the chain as printed.

Sequences and labels used below:
T1: FcγRIIA protein (human, UniProt P12318 36-217, biotinylated (SureLINK Biotin Kit) in the ELISA of Example 1)
T1 construct: Soluble/recombinant antigen used in ELISA; also called bt-FcγRIIA; recombinant FcγRIIA protein
T1 sequence: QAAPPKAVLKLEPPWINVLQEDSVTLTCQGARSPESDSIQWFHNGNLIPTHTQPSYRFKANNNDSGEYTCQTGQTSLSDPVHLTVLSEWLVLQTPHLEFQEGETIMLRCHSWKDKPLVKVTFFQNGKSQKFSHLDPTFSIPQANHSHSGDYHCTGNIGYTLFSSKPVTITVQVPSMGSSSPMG

T2: FcγRIIB protein (human, UniProt P31994 43-217, biotinylated (SureLINK Biotin Kit) in the ELISA of Example 1)
T2 construct: Soluble/recombinant antigen used in ELISA; also called bt-FcγRIIB; recombinant FcγRIIB protein
T2 sequence: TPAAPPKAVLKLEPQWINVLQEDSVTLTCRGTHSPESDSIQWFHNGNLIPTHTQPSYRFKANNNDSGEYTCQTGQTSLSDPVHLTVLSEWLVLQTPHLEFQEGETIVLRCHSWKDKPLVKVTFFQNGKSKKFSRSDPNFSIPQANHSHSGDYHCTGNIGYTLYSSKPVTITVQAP

B1: R2BS39 (designed binder)
chain: LPAPKNLVVSRVTEDSARLSWTAPDAAFDSFLIQYQESEKVGEAIVLTVPGSERSYDLTGLKPGTEYTVSIYGVSHGPWYNYGEWRSNPLSAIFTT
notes: expressed in E. coli BL21 and purified on nickel sepharose; also called R2BS39 FN3 domain
B2: R2BS29 (designed binder)
chain: LPAPKNLVVSRVTEDSARLSWTAPDAAFDSFPIYYWEYRVGGEAIVLTVPGSERSYDLTGLKPGTEYFVYINGVKGGEESRPLSAIFTT
notes: expressed in E. coli BL21 and purified on nickel sepharose; also called R2BS29 FN3 domain; R2B29
B3: R2BS26 (designed binder)
chain: B2 chain with Y34A, W36I, R39W, V40T, Y70W, N72H, E78A, E79W, R81S
notes: expressed in E. coli BL21 and purified on nickel sepharose; also called R2BS26 FN3 domain
B4: R2BS9 (designed binder)
chain: B2 chain with P32W, W36L, R39W, V40R, Y70Q, N72H, E78Q, E79Y, R81Y
notes: expressed in E. coli BL21 and purified on nickel sepharose; also called R2BS9 FN3 domain
B5: R2BS12 (designed binder)
chain: B2 chain with P32L, Y34A, W36A, R39W, V40E, I45V, Y70Q, E78F, E79W, R81I
notes: expressed in E. coli BL21 and purified on nickel sepharose; also called R2BS12 FN3 domain; R2B12
B6: R2BS56 (designed binder)
chain: B2 chain with P32S, Y34A, V40K, Y70L, N72Y, E78W, E79Q, R81K
notes: expressed in E. coli BL21 and purified on nickel sepharose; also called R2BS56 FN3 domain; R2B56
B7: R2BS6 (designed binder)
chain: LPAPKNLVVSRVTEDSARLSWTAPDAAFDSFLIQYQESEKVGEAIVLTVPGSERSYDLTGLKPGTEYTVSIYGVQYAAWYLPRHHEASNPLSAIFTT
notes: expressed in E. coli BL21 and purified on nickel sepharose; also called R2BS6 FN3 domain

The target in one experiment is T1, FcγRIIA protein. As to the kind of experiment: ELISA; bt-FcγRIIA on streptavidin plate, purified FN3 domain titrated. As to the method:
(§1) For primary ELISA, Maxisorp 96-well plates were loaded with 100 μL per well of streptavidin (Promega; 5 μg/mL in PBS) and then held at 4° C. overnight. The next day, the streptavidin-coated plates were washed 3×TBST and then blocked with 250 μL Starting Block T20 (Pierce-cat#37543). After a 1 h incubation, all plates were washed 3 times with 1×TBST, loaded with 100 μL per well of either bt-FcγRIIA, bt-FcγRIIB, or bt-HSA (negative screen) all at 1 μg/mL, and held at room temperature for 1 h. The previously lysed FN3 domains were centrifuged at 3500 rpm for 10 minutes, diluted 1:10 in Starting Block T20 and added 100 μL each to the plates. After a 1 h incubation at room temperature, the plates were washed 3× with 1×TBST and the wells were loaded with 100 μL of a HRP conjugated rabbit polyclonal antibody against tencon 27. After a final 1 h incubation at room temperature, the plates were washed 3× with 1×TBST, loaded with 100 μL per well of the chemiluminescence substrate POD (Roche), and read in a Perkin Elmer Envision plate reader. Positive binding colonies (those clones showing 5-fold higher binding to FcγRIIA or FcγRIIB when compared to HSA) were subjected to Sanger sequencing and identified coding sequences were in silico translated to amino acid sequences. Sequence unique FN3 domains were expressed in BL21 cells and purified using nickel sepharose plates. Antigen binding of purified FN3 domains in a dilution series was performed. Specifically, in an ELISA format, Streptavidin coated plates (Promega #Z7041) were used to capture 50 μL of 1 μg/mL of either bt-FcγRIIB, bt-FcγRIIA, or as a negative control against sticky FN3 domains bt-HSA. To this FN3 domains were added at 10 μM then diluted 1:5 down to 128 pM, and detected for binding using a HRP conjugated rabbit polyclonal against tencon 27 and POD substrate (Roche #11582950001). Binding curves and EC50 values were calculated using X=log(x) transformation and non-linear regression (curved slope) calculations of Prism GraphPad.
A general note: ELISA stands for enzyme-linked immunosorbent assay.
Turning to B1, the EC50 turned out to be 15.5 nM.
For B2, the EC50 was determined as 3.22 nM.
Molecule B3 had an EC50 of 6.51 nM.
In turn, B4 returned an EC50 of 5.49 nM.
The molecule B5 yielded an EC50 of 9.6 nM.
Take B6: the EC50 was found to be 5.5 nM.
Still for that read-out and setting: with B7 the figure was 27.3 nM.

The target of a further experiment is T2, FcγRIIB protein. As to the kind of experiment: ELISA; bt-FcγRIIB on streptavidin plate, purified FN3 domain titrated. As to the method:
as §1
Molecule B1 showed an EC50 of 419 nM. This lies in the sub-micromolar range.
On the same count and under the same terms, the result for B2 reads 3.57 nM.
For the molecule B3, the EC50 is 5.3 nM. This EC50 and that of the molecule before are within 1.5-fold of each other.
The molecule B4 gave an EC50 of 4.51 nM.
With B5, the EC50 came to 43 nM.
On to B6, for which the EC50 amounted to 7.32 nM.
B7 returned an EC50 of 7.59 nM. The EC50 values of the last two molecules are within 1.5-fold of each other.
